{
  "source": "paper PMC8536012",
  "about": "“Selection of Specific Nanobodies against Lupine Allergen Lup an 1 for Immunoassay Development” (Foods, 2021)",
  "target": "T1, Lup an 1 (Lupinus angustifolius (by the …, UniProt F5B8W3))",
  "T1 construct": "Lup an 1, lupin β-conglutin, a 7S seed storage globulin of the vicilin-like proteins; found by LC-MS/MS of the ~55 kDa band immunocaptured from crude lupine extract; UniProt F5B8W3.1; size distribution printed as 55 to 61 kDa; Never purified: it stood in a crude lupine protein extract in every experiment; Seen as a band of ~55 kDa; also called lupin β-conglutin; lupine allergen Lup an 1; source: …",
  "T1 sequence (F5B8W3 31-637)": "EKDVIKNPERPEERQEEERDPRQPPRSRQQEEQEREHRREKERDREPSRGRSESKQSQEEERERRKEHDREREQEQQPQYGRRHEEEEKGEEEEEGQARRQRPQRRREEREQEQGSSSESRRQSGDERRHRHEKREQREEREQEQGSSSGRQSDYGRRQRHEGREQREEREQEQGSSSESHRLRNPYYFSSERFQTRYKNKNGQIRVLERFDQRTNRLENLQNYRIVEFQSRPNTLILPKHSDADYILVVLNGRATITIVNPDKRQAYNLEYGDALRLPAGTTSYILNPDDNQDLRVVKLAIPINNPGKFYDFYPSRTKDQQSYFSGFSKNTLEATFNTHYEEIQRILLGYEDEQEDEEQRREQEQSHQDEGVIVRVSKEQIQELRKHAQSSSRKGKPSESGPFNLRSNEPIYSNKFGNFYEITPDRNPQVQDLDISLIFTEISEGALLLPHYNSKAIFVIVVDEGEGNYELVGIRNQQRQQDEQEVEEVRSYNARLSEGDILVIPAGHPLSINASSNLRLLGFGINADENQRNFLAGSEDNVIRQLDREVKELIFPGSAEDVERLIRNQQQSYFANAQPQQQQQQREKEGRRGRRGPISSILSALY",
  "experiment": "ELISA; crude lupine extract (50 μg/mL) coated overnight at 4 °C; Nbs serially diluted in PBS, 1 h at room temperature; detected by mouse anti-His IgG and HRP goat anti-mouse IgG; apparent affinity = concentration at half of the maximum signal",
  "conditions": "one partner purified",
  "data": [
    {"binder": "Nb B83 (His- and HA-tagged) (VHH, also called Nb83; B83HA; source: E. coli WK6 (pMECS), periplasmic, purified (IMAC, SEC)) VHH: QVQLQESGGGLVQPGGSLRLSCAASGSIFSRNDMGWYRQAVGEARILVATITSGGVTTYADSVKGRFTISRDNAKNTVYLQMNSLKPEDTAVYYCNTLTNRRNAYWGQGTQVTVSS", "values": [
      {"measurement": "EC50", "result": 1, "unit": "nM"}
    ]},
    {"binder": "Nb B163 (His- and HA-tagged) (VHH, also called Nb163; source: E. coli WK6 (pMECS), periplasmic, purified (IMAC, SEC)) VHH: QVQLQESGGGLAQAGGSLTLSCAASGRTFSIPTMGWFRQAPGKEREFVAAIGRTTAYTGSVKGRFTISRDSAKNTVSLQMNSLNIEDTGVYYCASSQSPWSSPPLTENMYAYWGQGTQVTVSS", "values": [
      {"measurement": "EC50", "result": 45, "unit": "nM"}
    ]},
    {"binder": "Nb B66 (His- and HA-tagged) (VHH, also called Nb66; source: E. coli WK6 (pMECS), periplasmic, purified (IMAC, SEC)) VHH: QVQLQESGGGLVQAGGSLRLSCAASGRTFSSYGIGWFRQAPGKEREFVASISWSGGSTYYADSVKGRFTISRDNAKNTVYLQMNSLKPEDTAVYYCAAVIEAIDFVPVEYDYWGQGTQVTVSS", "values": [
      {"measurement": "EC50", "result": 180, "unit": "nM"}
    ]},
    {"binder": "Nb B42 (His- and HA-tagged) (VHH, also called Nb42; source: E. coli WK6 (pMECS), periplasmic, purified (IMAC, SEC)) VHH: QVQLQESGGGLVQAGGSLRLSCAASGRTFSSYAMGWFRQAPGKEREFVAAISWSGGSTYYADSVKGRFTISRDNAKNTVYLQMNSLKPEDTAVYYCAVDQWILEVNAAFQADYWGQGTQVTVSS", "values": [
      {"measurement": "EC50", "result": 24, "unit": "nM"}
    ]},
    {"binder": "Nb B91 (His- and HA-tagged) (VHH, also called Nb91; source: E. coli WK6 (pMECS), periplasmic, purified (IMAC, SEC)) VHH: QVQLQESGGGLVQAGDSLRLSCASSGRTFSSYGVGWFRQAPGKEREFVAAISWNGGSASYADSVKGRFTVSRDNAKNTVYLQMNSLQPEDTADYYCAAKVEALYGTDYFRDYDYWGQGTQVTVSS", "values": [
      {"measurement": "EC50", "result": 9, "unit": "nM"}
    ]},
    {"binder": "Nb B157 (His- and HA-tagged) (VHH, also called Nb157; source: E. coli WK6 (pMECS), periplasmic, purified (IMAC, SEC)) VHH: QVQLQESGGGLVQAGGSLRLSCEASGRTNTKYAWGWFRQAPGKEREFVASINWSGTLINYADSVKGRFTISRDDAKNTVYLEMSSLRPEDTAVYSCAVRYYTGTYYYTTSPDNYKHWAQGTQVTVSS", "values": [
      {"measurement": "EC50", "result": 680, "unit": "nM"}
    ]},
    {"binder": "Nb B167 (His- and HA-tagged) (VHH, also called Nb167; source: E. coli WK6 (pMECS), periplasmic, purified (IMAC, SEC)) VHH: QVQLQESGGGLVQAGGSLRLSCAASRRTSRNYDMTWFRQFPGTEREFVAFISWGGSRIYYADSVKGRFTISRDNAKDTVYLQMNSLKPEDTAVYYCAADPRLVRGRYESDYWGQGTQVTVSS", "values": [
      {"measurement": "EC50", "result": 13, "unit": "nM"}
    ]},
    {"binder": "Nb B187 (His- and HA-tagged) (VHH, From an immune alpaca library raised against crude lupine protein extract; also called Nb187; B187HA; source: E. coli WK6 (pMECS), periplasmic, purified (IMAC, SEC)) VHH: QVQLQESGGGLVQAGGSLRLSCAASGRTFSGARMGWFRQAPGKEREFVAAIRWITGSTYYTDSVKGRFTISRDIAKNTQYLQMNSLKPEDTARYYCAAGEYYGGSYSDTEKYDYWGQGTQVTVSS", "values": [
      {"measurement": "EC50", "result": 14, "unit": "nM"}
    ]},
    {"binder": "Nb B50 (His- and HA-tagged) (VHH, also called Nb50; source: E. coli WK6 (pMECS), periplasmic, purified (IMAC, SEC)) VHH: QVQLQESGGGLVQAEGSLRLSCTVSGRTFSRDAMGWFRRPPGKEREFVAAISWNGASTSYADSVKGRFTVSRDNAKNTSLLQMNSLKPEDTAVYYCATYWSSAIPPLAAATSATYWGQGTQVTVSS", "values": [
      {"measurement": "EC50", "result": 16, "unit": "nM"}
    ]},
    {"binder": "Nb B69 (His- and HA-tagged) (VHH, also called Nb69; source: E. coli WK6 (pMECS), periplasmic, purified (IMAC, SEC)) VHH: QVQLQESGGGLVQPGGSLRLSCVSSERTFSPYTMAWFRQAPGKERDFVADIRWGDGTTRYADSVKGRFTISRDNAKNTVFLQTNSLTPEDTAVYYCAHKTWYPRSFQAASYDFWGQGTQVTVSS", "values": [
      {"measurement": "EC50", "result": 325, "unit": "nM"}
    ]},
    {"binder": "Nb B40 (His- and HA-tagged) (VHH, Detecting nanobody of the final sandwich ELISA; also called Nb40; B40HA; source: E. coli WK6 (pMECS), periplasmic, purified (IMAC, SEC)) VHH: QVQLQESGGGLVQAGESLRLSCATTEHANQMYAVGWFRQAPGKEREFVASINWSGTRTEHAESVKGRFTISKINPHDTVYLQMNSLKPEDTAVYACAARYYSGTYTKTDNSNDYDYWGQGTQVTVSS", "values": [
      {"measurement": "EC50", "result": 8, "unit": "nM"}
    ]},
    {"binder": "Nb B165 (His- and HA-tagged) (VHH, also called Nb165; source: E. coli WK6 (pMECS), periplasmic, purified (IMAC, SEC)) VHH: QVQLQESGGGLVQAGGSLRLSCAASTRTFSSDAMGWFRQAPGKEREFVAAISISTYYADSVKGRFTISRDNAKNTMYLQMNRLKPEDTAVYYCAVKPFYGGIRYPNEYPYWGQGTQVTVSS", "values": [
      {"measurement": "EC50", "result": 31, "unit": "nM"}
    ]}
  ]
}
